The target of assay [1] is TSHR with Arg274 mutated to Ala, expressed in CHO cells (human) (UniProt P16473). The assay is described as follows: cell-based or functional assay.
Assay [2] deals with TSHR with Ser281 mutated to Ala, expressed in CHO cells (human) (UniProt P16473). Put plainly: cell-based or functional assay.
Assay [3] concerns the target TSHR with Phe134 mutated to Ala, expressed in CHO cells (human) (UniProt P16473). The assay is described as follows: cell-based or functional assay.
Assay [4] deals with wild type TSHR expressed in CHO cells (human) (UniProt P16473). The assay is described as follows: cell-based or functional assay.
In assay [5] the target is human TSHR on transfected CHO cells (human, UniProt P16473 22-764). The assay is described as follows: cell-based or functional assay.
Assay [6] concerns the target TSH receptor (TSHR), full length human, coated on tubes (human) (UniProt P16473). Put plainly: inhibition of 125I-K1-18 IgG binding to TSHR coated tubes; competitor 125I-K1-18 IgG; sample at 0.1 µg/mL in assay buffer.
The target in assay [7] is TSH receptor (full length human TSHR) coated on tubes (human) (UniProt P16473). Put plainly: 125I-TSH binding inhibition read against NIBSC 90/672; 30 ng/mL, in assay buffer.
Assay [8] concerns the target human TSH receptor (full length) coated on ELISA plate wells (human) (UniProt P16473). The assay is described as follows: TSH-biotin binding inhibition ELISA, TSHR coated wells; 0.003 µg/mL in assay buffer + 100 µg/mL 5B3 IgG.
The target in assay [9] is TSH receptor (TSHR) coated on tubes (human) (UniProt P16473). The assay is described as follows: inhibition of 125I-K1-70 IgG binding to TSHR coated tubes; sample 0.003 µg/mL in HBD serum pool; duplicate determination.
Assay [10] concerns the target human thyroid stimulating hormone receptor (TSHR), full length (human) (UniProt P16473). The assay is described as follows: 125I-K1-70 Fab (competitor) binding to TSHR coated tubes; negative control MAb 0.001 µg/mL in HBD serum.
Assay [11] deals with human TSH receptor (full length) coated on ELISA plate wells (human) (UniProt P16473). The assay is described as follows: TSH-biotin binding inhibition ELISA, TSHR coated wells; 0.1 µg/mL in assay buffer + 100 µg/mL 5B3 IgG; negative control MAb. (In general: An ELISA detects its analyte on a solid surface through an enzyme-linked reagent.)
The target of assay [12] is TSH receptor (TSHR), full length human, coated on tubes (human) (UniProt P16473). The assay is described as follows: inhibition of 125I-K1-18 IgG binding to TSHR coated tubes; competitor 125I-K1-18 IgG; negative control sample at 1 µg/mL in assay buffer.
For assay [13] the target is unchanged. The assay is described as follows: inhibition of 125I-K1-18 IgG binding to TSHR coated tubes; competitor 125I-K1-18 IgG; negative control sample at 0.1 µg/mL in assay buffer.
The target of assay [14] is TSH receptor (full length human TSHR) (human) (UniProt P16473). The assay is described as follows: competition ELISA: inhibition of M22 Fab-peroxidase (competitor) binding to TSHR coated wells; negative control at 10 µg/mL diluted in assay buffer.
The target is the same in assay [15]. The assay is described as follows: competition ELISA: inhibition of M22 Fab-peroxidase (competitor) binding to TSHR coated wells; negative control at 100 µg/mL diluted in HBD serum pool.
Assay [16] addresses human thyroid stimulating hormone receptor (TSHR), full length (human) (UniProt P16473). The assay is described as follows: 125I-K1-18 Fab competition, TSHR coated tubes; 10 µg/mL in HBD.
Assay [17] addresses human TSH receptor (full length) coated on ELISA plate wells (human) (UniProt P16473). Put plainly: TSH-biotin binding inhibition ELISA, TSHR coated wells; 1 µg/mL in assay buffer.
Assay [18] has the same target. The assay is described as follows: TSH-biotin binding inhibition ELISA, TSHR coated wells; 0.1 µg/mL in HBD serum pool.
For assay [19], the target named is thyroid stimulating hormone receptor (full length human TSHR) (human) (UniProt P16473). Put plainly: ELISA, inhibition of TSH-biotin binding to TSHR coated wells; 10 µg/mL, diluted in assay buffer.
Assay [20] concerns the target thyroid stimulating hormone receptor (TSHR), full length, coated on tubes (human) (UniProt P16473). The assay is described as follows: inhibition of 125I-TSH binding, TSHR coated tubes; antibody 0.01 µg/mL in assay buffer; mean of duplicate.

In assay [1], TSH (ligand) showed a Cyclic AMP produced (pmol/mL), TSH 0.01 ng/mL, Experiment 1 of 1.97 pmol/mL; a Cyclic AMP produced (pmol/mL), TSH 0.01 ng/mL, Experiment 2 of 1.37 pmol/mL; a Cyclic AMP produced (pmol/mL), TSH 0.03 ng/mL, Experiment 1 of 4.14 pmol/mL; a Cyclic AMP produced (pmol/mL), TSH 0.03 ng/mL, Experiment 2 of 2.94 pmol/mL. In [1], this molecule had a Cyclic AMP produced (pmol/mL), TSH 0.1 ng/mL, Experiment 1 of 9.38 pmol/mL; a Cyclic AMP produced (pmol/mL), TSH 0.1 ng/mL, Experiment 2 of 8.29 pmol/mL; a Cyclic AMP produced (pmol/mL), TSH 0.3 ng/mL, Experiment 1 of 27.3 pmol/mL; a Cyclic AMP produced (pmol/mL), TSH 0.3 ng/mL, Experiment 2 of 25.5 pmol/mL. In [1], the Cyclic AMP produced (pmol/mL), TSH 1 ng/mL, Experiment 1 amounted to 67.6 pmol/mL; the Cyclic AMP produced (pmol/mL), TSH 1 ng/mL, Experiment 2 stood at 58.5 pmol/mL; the Cyclic AMP produced (pmol/mL), TSH 3 ng/mL, Experiment 1 was 98.8 pmol/mL; the Cyclic AMP produced (pmol/mL), TSH 3 ng/mL, Experiment 2 was 73.2 pmol/mL. Moreover, in assay [1], the Mutated/Wild type (%), TSH 0.01 ng/mL, Experiment 1 stood at 106%; the Mutated/Wild type (%), TSH 0.01 ng/mL, Experiment 2 came to 55%; the Mutated/Wild type (%), TSH 0.03 ng/mL, Experiment 1 turned out to be 125%; the Mutated/Wild type (%), TSH 0.03 ng/mL, Experiment 2 is 57%. In assay [1], this molecule gave a Mutated/Wild type (%), TSH 0.1 ng/mL, Experiment 1 of 64%; a Mutated/Wild type (%), TSH 0.1 ng/mL, Experiment 2 of 61%; a Mutated/Wild type (%), TSH 0.3 ng/mL, Experiment 1 of 56%; a Mutated/Wild type (%), TSH 0.3 ng/mL, Experiment 2 of 64%. In assay [1], this molecule came in with a Mutated/Wild type (%), TSH 1 ng/mL, Experiment 1 of 74%; a Mutated/Wild type (%), TSH 1 ng/mL, Experiment 2 of 79%; a Mutated/Wild type (%), TSH 3 ng/mL, Experiment 1 of 83%; a Mutated/Wild type (%), TSH 3 ng/mL, Experiment 2 of 82%. In [2], the % inhibition of TSH stimulation; TSH (2) (run at the end of assay, against the first TSH sample); Experiment 1 turned out to be 19%; the % inhibition of TSH stimulation; TSH (2) (run at the end of assay, against the first TSH sample); Experiment 2 was found to be 4%; the Cyclic AMP produced (pmol/mL), TSH 0.01 ng/mL, mutated TSHR is 2.84 pmol/mL; the Cyclic AMP produced (pmol/mL), TSH 0.03 ng/mL, mutated TSHR was found to be 4.69 pmol/mL. Further, in assay [2], the Cyclic AMP produced (pmol/mL), TSH 0.1 ng/mL, mutated TSHR was determined as 11.3 pmol/mL; the Cyclic AMP produced (pmol/mL), TSH 0.3 ng/mL, mutated TSHR is 27.5 pmol/mL; the Cyclic AMP produced (pmol/mL), TSH 1 ng/mL, mutated TSHR worked out at 51.6 pmol/mL; the Cyclic AMP produced (pmol/mL), TSH 3 ng/mL, mutated TSHR turned out to be 68 pmol/mL. Besides, in [2], the Mutated/Wild type (%), TSH 0.01 ng/mL stood at 140%; the Mutated/Wild type (%), TSH 0.03 ng/mL was 128%; the Mutated/Wild type (%), TSH 0.1 ng/mL was 117%; the Mutated/Wild type (%), TSH 0.3 ng/mL turned out to be 88%. Moreover, in [2], the Mutated/Wild type (%), TSH 1 ng/mL was found to be 85%; the Mutated/Wild type (%), TSH 3 ng/mL worked out at 82%; the Mutated/wild type (%) of cyclic AMP produced; test sample TSH (3 ng/mL); Experiment 1 was determined as 79%; the Mutated/wild type (%) of cyclic AMP produced; test sample TSH (3 ng/mL); Experiment 2 worked out at 92%. In [2], this molecule came in with a Mutated/wild type (%) of cyclic AMP produced; test sample TSH (2) (3 ng/mL, run at the end of assay); Experiment 1 of 57% and a Mutated/wild type (%) of cyclic AMP produced; test sample TSH (2) (3 ng/mL, run at the end of assay); Experiment 2 of 79%. Also, in [3], the Cyclic AMP produced, TSH 0.01 ng/mL, mutated TSHR stood at 4.73 pmol/mL; the Cyclic AMP produced, TSH 0.03 ng/mL, mutated TSHR was determined as 6.05 pmol/mL; the Cyclic AMP produced, TSH 0.1 ng/mL, mutated TSHR was 12.7 pmol/mL; the Cyclic AMP produced, TSH 0.3 ng/mL, mutated TSHR is 27.3 pmol/mL. Further, in [3], the Cyclic AMP produced, TSH 1 ng/mL, mutated TSHR amounted to 53.7 pmol/mL; the Cyclic AMP produced, TSH 3 ng/mL, mutated TSHR was 61.5 pmol/mL; the Mutated/Wild type (%), TSH 0.01 ng/mL came out at 189%; the Mutated/Wild type (%), TSH 0.03 ng/mL is 141%. For the same molecule, in assay [3], the Mutated/Wild type (%), TSH 0.1 ng/mL was found to be 120%; the Mutated/Wild type (%), TSH 0.3 ng/mL is 94%; the Mutated/Wild type (%), TSH 1 ng/mL was found to be 102%; the Mutated/Wild type (%), TSH 3 ng/mL came to 101%. Also, in assay [4], the Cyclic AMP produced, TSH 0.01 ng/mL, wild type TSHR was determined as 2.5 pmol/mL; the Cyclic AMP produced, TSH 0.03 ng/mL, wild type TSHR turned out to be 4.29 pmol/mL; the Cyclic AMP produced, TSH 0.1 ng/mL, wild type TSHR was determined as 10.6 pmol/mL; the Cyclic AMP produced, TSH 0.3 ng/mL, wild type TSHR was found to be 28.9 pmol/mL. Moreover, in assay [4], the Cyclic AMP produced, TSH 1 ng/mL, wild type TSHR was 52.5 pmol/mL and the Cyclic AMP produced, TSH 3 ng/mL, wild type TSHR was determined as 61.1 pmol/mL.

Molecule 9D33 IgG (antibody) showed a TSHR constitutive (basal) cyclic AMP activity in [5] of 2 x basal. Also, the Inhibition of binding (%) in [6] came to 54.8%.

In [7], M22 IgG (antibody) yielded a units/L of 8.6 units/L and a units/mg of 287 units/mg. The % inhibition of TSH-biotin binding in assay [8] is -0.5%. Also, the Inhibition of binding (%) in assay [9] was determined as 6.2%.

For the molecule 5B3 IgG (antibody), the Inhibition of binding (%) was -12.1% in [10]; -3.8% in [12]; -4.8% in assay [13]; 2.4% in assay [14]; 3.8% in assay [15]. Moreover, the % inhibition of TSH-biotin binding in assay [11] is -6.4%.

B1: 5C9 IgG (antibody, from another filing, V domains shown)
VH: EVQLVESGGGLIQPGGSLRLSCAASGFTVSSNYMSWVRQAPGKGLEWVSVTYSGGSTSYADSVKGRFTISRDNSKNTLYLQMNSLRAEDTAVYYCARGGRYCSSISCYARSGCDYWGQGTLVTVSS
VL: AIQMTQSPSSLSASVGDRVTITCRASQSISNYLNWYQQKPGKAPKLLIYAASSLQSGVPSRFSGSGSGTDFTLTISSLQPEDFATYYCQQSYSSPSTTFGQGTKLEIK
For B1, the values for the Inhibition of binding (%) in assay [16], in assay [19] and in assay [20] were 49.8%, 37.8% and 15.9%, respectively. Besides, the % inhibition of TSH-biotin binding came out at 42.9% in [17] and 21.6% in [18].

Values taken from US20110300138A1 (published 2011).
